Data set [1] deals with T1, EYFP-HilD (Salmonella enterica, UniProt P0CL08 1-309).
T1 construct: HilD of Salmonella enterica, UniProt P0CL08; eyfp was ligated (BamHI/EheI) into the SUMO-HilD expression vector that gives the full-length HilD; EYFP is the fluorescent label used for MST detection; also called EYFP-HilD fusion protein; source: E. coli C41(DE3), purified (Ni-NTA, SUMO protease cleavage, second Ni-NTA, SEC on Superdex 200); not shown: His6-SUMO, N-terminal, cleaved; EYFP, …
T1 sequence: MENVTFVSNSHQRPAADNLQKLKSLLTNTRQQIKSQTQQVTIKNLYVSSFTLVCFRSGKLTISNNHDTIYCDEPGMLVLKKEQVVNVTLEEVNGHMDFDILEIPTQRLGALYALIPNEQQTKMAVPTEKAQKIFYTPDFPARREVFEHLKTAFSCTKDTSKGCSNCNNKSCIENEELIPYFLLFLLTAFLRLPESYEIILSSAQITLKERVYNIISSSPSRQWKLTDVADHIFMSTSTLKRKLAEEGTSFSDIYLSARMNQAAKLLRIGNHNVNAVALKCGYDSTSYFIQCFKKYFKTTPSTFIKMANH
Briefly: MST; homodimerization: unlabeled HilD titrated against EYFP-HilD preincubated with 1% DMSO; MST on-time 1.5 s, 25 °C. The conditions noted are these: both partners purified.

Data set [2] deals with the molecule itself. In words: SEC-MALS; Superdex 75 Increase 10/300 GL, 50 mM NaH2PO4 pH 7.0, 200 mM NaCl, 0.5 ml/min; protein concentrations of 100 μM (Fig. 4, D and E).
For data set [3], the target named is T1, EYFP-HilD. In words: MST; homodimerization: unlabeled HilD (3.05 nM to 100 μM) titrated against 50 nM EYFP-HilD; 25 °C, 0.05% Pluronic F-127, protein storage buffers; dimer to monomers. The settings on record: both partners purified.

This is an account of results in publication PMC10696396, “HilE represses the activity of the Salmonella virulence regulator HilD via a mechanism distinct from that of intestinal long-chain fatty acids” (The Journal of Biological Chemistry, 2023).

B1: HilD (full-length, unfused) (natural protein)
chain: T1 sequence
notes: HilD, AraC/XylS transcription regulator of Salmonella enterica, UniProt P0CL08; Exclusively a homodimer alone by SEC-MALS; a single copy stands in the 1:1 complex with HilE; also called unlabeled HilD; unfused HilD; source: E. coli C41(DE3), purified (Ni-NTA, SUMO protease cleavage, second Ni-NTA, SEC); not shown: His6-SUMO, N-terminal, cleaved
Usually Kd stands for the concentration at which binding is half-saturated. For orientation: stoichiometry N means the number of molecules, sites or subunits per partner or assembly. Regarding B1, the Kd was found to be 4.33 ± 0.72 µM with EYFP-HilD [1] and 3.85 ± 0.63 µM with EYFP-HilD [3]. Moreover, the “stoichiometry N” value in data set [2] came out at 2.

B2: HilD NTD (residues 7-206) (domain or fragment)
chain: VSNSHQRPAADNLQKLKSLLTNTRQQIKSQTQQVTIKNLYVSSFTLVCFRSGKLTISNNHDTIYCDEPGMLVLKKEQVVNVTLEEVNGHMDFDILEIPTQRLGALYALIPNEQQTKMAVPTEKAQKIFYTPDFPARREVFEHLKTAFSCTKDTSKGCSNCNNKSCIENEELIPYFLLFLLTAFLRLPESYEIILSSAQIT
notes: a His6 tag stands in place of the first six residues of HilD; No cleavage of the His6 tag is described (no protease site, purification goes from Ni-NTA to SEC); also called HilD_(7-206) (NTD); His6-tagged HilD NTD construct; source: E. coli C41(DE3), purified (Ni-NTA, SEC on Superdex 75); not shown: His6, N-terminal, kept
In the case of B2, the “stoichiometry N” value in data set [2] was determined as 2.
